Results as given in doi:10.1101/2020.09.27.316166.
Read-outs that look alike come from different tables or passages of the source.

B1: ISD (interferon stimulatory DNA, 45 bp) (dsDNA)
DNA 1: TACAGATCTACTAGTGATCTATGACTGATCTGTACATGATCTACA
DNA 2: TGTAGATCATGTACAGATCAGTCATAGATCACTAGTAGATCTGTA

Experiments:
[1] = molecular target: T1, FL-hcGAS (human cyclic GMP-AMP synthase) (human, UniProt Q8N884 1-522); assay: phase separation microscopy
[2] = molecular target: T1, FL-hcGAS (human cyclic GMP-AMP synthase); assay: phase separation microscopy; remark: listed apart in the source

T1 sequence (Q8N884 whole entry): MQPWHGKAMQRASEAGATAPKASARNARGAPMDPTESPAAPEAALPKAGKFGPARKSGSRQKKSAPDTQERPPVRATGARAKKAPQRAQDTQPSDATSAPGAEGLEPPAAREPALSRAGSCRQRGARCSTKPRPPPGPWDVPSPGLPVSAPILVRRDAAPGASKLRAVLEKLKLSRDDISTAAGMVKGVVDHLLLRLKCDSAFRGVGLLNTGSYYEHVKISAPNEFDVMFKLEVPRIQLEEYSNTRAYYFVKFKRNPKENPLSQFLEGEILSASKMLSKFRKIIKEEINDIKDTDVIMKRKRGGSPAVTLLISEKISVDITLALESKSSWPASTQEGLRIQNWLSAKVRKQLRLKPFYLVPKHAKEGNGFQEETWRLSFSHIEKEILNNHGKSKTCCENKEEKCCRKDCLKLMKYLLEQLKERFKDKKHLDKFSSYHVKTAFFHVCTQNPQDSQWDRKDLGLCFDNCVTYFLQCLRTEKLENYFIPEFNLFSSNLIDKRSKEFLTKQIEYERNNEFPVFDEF

Row | Binder | binding result [1] | binding result [2]
1 | B1 | binds | –
2 | AGAGAGAGAGAGAGAGAGAGAGAGAGAGAGAGAGAGAGAGAGAGAGAG (ssDNA) [48 nt ssDNA (AG repeat)] | – | binds
